Read-outs that look alike come from different tables or passages of the source.

Assay [1] concerns the target PKR kinase kinase domain (Homo sapiens) (UniProt P19525). As to conditions: cited from earlier work.
Assay [2] has as its target PKR (Homo sapiens) (UniProt P19525). To be noted: cited from earlier work.
The target is the same in assay [3]. Put plainly: sedimentation equilibrium. As to conditions: cited from earlier work.
Assay [4] concerns the target T1, PKR (Homo sapiens, UniProt P19525).
T1 chain: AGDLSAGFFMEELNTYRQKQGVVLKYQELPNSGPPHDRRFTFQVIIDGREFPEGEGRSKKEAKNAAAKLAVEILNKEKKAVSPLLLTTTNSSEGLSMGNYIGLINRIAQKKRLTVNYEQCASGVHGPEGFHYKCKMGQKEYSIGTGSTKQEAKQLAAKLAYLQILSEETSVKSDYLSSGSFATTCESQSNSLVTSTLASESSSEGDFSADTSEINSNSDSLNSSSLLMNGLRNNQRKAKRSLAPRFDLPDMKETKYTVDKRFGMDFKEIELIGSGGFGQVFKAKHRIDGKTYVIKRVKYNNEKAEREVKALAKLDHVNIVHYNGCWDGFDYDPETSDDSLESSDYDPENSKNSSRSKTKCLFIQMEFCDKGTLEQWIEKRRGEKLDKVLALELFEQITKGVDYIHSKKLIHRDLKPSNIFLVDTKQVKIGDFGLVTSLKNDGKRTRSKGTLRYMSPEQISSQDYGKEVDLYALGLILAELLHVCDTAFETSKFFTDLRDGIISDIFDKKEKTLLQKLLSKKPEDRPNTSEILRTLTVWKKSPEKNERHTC
Put plainly: sedimentation equilibrium.

With “PKR second dsRBD dsRBD2 (from UniProt P19525)”, the Kd in assay [1] is 250 µM.

Regarding PKR (from UniProt P19525), the values for the Kd in assay [2] and in assay [3] were 500 µM and 450 µM, respectively.

B1: PKR (protein)
chain: AGDLSAGFFMEELNTYRQKQGVVLKYQELPNSGPPHDRRFTFQVIIDGREFPEGEGRSKKEAKNAAAKLAVEILNKEKKAVSPLLLTTTNSSEGLSMGNYIGLINRIAQKKRLTVNYEQCASGVHGPEGFHYKCKMGQKEYSIGTGSTKQEAKQLAAKLAYLQILSEETSVKSDYLSSGSFATTCESQSNSLVTSTLASESSSEGDFSADTSEINSNSDSLNSSSLLMNGLRNNQRKAKRSLAPRFDLPDMKETKYTVDKRFGMDFKEIELIGSGGFGQVFKAKHRIDGKTYVIKRVKYNNEKAEREVKALAKLDHVNIVHYNGCWDGFDYDPETSDDSLESSDYDPENSKNSSRSKTKCLFIQMEFCDKGTLEQWIEKRRGEKLDKVLALELFEQITKGVDYIHSKKLIHRDLKPSNIFLVDTKQVKIGDFGLVTSLKNDGKRTRSKGTLRYMSPEQISSQDYGKEVDLYALGLILAELLHVCDTAFETSKFFTDLRDGIISDIFDKKEKTLLQKLLSKKPEDRPNTSEILRTLTVWKKSPEKNERHTC
modifications: K371pAzF labeled with Alexa Fluor 488-DIBO
Take B1: the Kd in assay [4] was determined as 1260 µM.

B2: PKR (protein)
chain: AGDLSAGFFMEELNTYRQKQGVVLKYQELPNSGPPHDRRFTFQVIIDGREFPEGEGRSKKEAKNAAAKLAVEILNKEKKAVSPLLLTTTNSSEGLSMGNYIGLINRIAQKKRLTVNYEQCASGVHGPEGFHYKCKMGQKEYSIGTGSTKQEAKQLAAKLAYLQILSEETSVKSDYLSSGSFATTCESQSNSLVTSTLASESSSEGDFSADTSEINSNSDSLNSSSLLMNGLRNNQRKAKRSLAPRFDLPDMKETKYTVDKRFGMDFKEIELIGSGGFGQVFKAKHRIDGKTYVIKRVKYNNEKAEREVKALAKLDHVNIVHYNGCWDGFDYDPETSDDSLESSDYDPENSKNSSRSKTKCLFIQMEFCDKGTLEQWIEKRRGEKLDKVLALELFEQITKGVDYIHSKKLIHRDLKPSNIFLVDTKQVKIGDFGLVTSLKNDGKRTRSKGTLRYMSPEQISSQDYGKEVDLYALGLILAELLHVCDTAFETSKFFTDLRDGIISDIFDKKEKTLLQKLLSKKPEDRPNTSEILRTLTVWKKSPEKNERHTC
modifications: K261pAzF labeled with Alexa Fluor 488-DIBO
Turning to B2, binding in assay [4] was put at a Kd of 94 µM.

For orientation: Kd means a measure of binding affinity in units of concentration.

The record behind these values is PMC4641775 (2016).
